Results: patent US20250320281A1

Legend:
Experiment in all cases: cell-based or functional assay
[1] = molecular target: HIV-1 Env of isolate 92TH021 (pseudovirus) (HIV-1)
[2] = molecular target: HIV-1 Env of isolate 92UG001 (HIV-1)
[3] = molecular target: HIV-1 Env of isolate 93MW959 (subtype C) (HIV-1)
[4] = molecular target: HIV-1 Env of isolate MG RM-D-002 (HIV-1)
[5] = molecular target: HIV-1 Env of isolate MGRM-A-001 (HIV-1)
[6] = molecular target: HIV-1 Env of isolate MGRM-AE-003 (subtype AE) (HIV-1)
[7] = molecular target: HIV-1 Env of isolate MGRM-AG-005 (subtype AG) (HIV-1)
[8] = molecular target: HIV-1 Env of isolate MGRM-Chronic-B-001 (subtype B) (HIV-1)
[9] = molecular target: HIV-1 Env of isolate MGRM-Chronic-B-018 (subtype B) (HIV-1)
[10] = molecular target: HIV-1 Env of pseudovirus isolate MGRM-G-028 (HIV-1)
[11] = molecular target: HIV-1 envelope glycoprotein (Env) of isolate MGRM-C-023 (HIV-1)
[12] = molecular target: HIV-1 envelope glycoprotein (Env) of isolate MGRM-C-026 (HIV-1)
[13] = molecular target: HIV-1 93IN905 envelope glycoprotein (Env) on pseudovirus (HIV-1)
[14] = molecular target: HIV-1 APV13 Env (pseudovirus) (HIV-1)
[15] = molecular target: HIV-1 APV6 Env (pseudovirus, clade B) (HIV-1)
[16] = molecular target: HIV-1 Env of isolate APV_13 (subtype B pseudovirus) (HIV-1)
[17] = molecular target: HIV-1 Env of isolate CMU02 (clade AE), on pseudovirus (HIV-1)
[18] = molecular target: HIV-1 Env of isolate JR-CSF (subtype B pseudovirus) (HIV-1) (UniProt P20871)
[19] = molecular target: HIV-1 Env of isolate MGRM-AG-011 (HIV-1)
[20] = molecular target: HIV-1 Env of isolate MGRM-AG-012 (HIV-1)
[21] = molecular target: HIV-1 Env of isolate MGRM-Chronic-B-003 (subtype B pseudovirus) (HIV-1)
[22] = molecular target: HIV-1 Env of isolate MGRM-D-022 (pseudovirus) (HIV-1)
[23] = molecular target: HIV-1 Env of isolate MGRM-F1-017 (HIV-1)
[24] = molecular target: HIV-1 Env of isolate MGRM-F1-022 (HIV-1)
[25] = molecular target: HIV-1 Env of isolate PVO.4 (subtype B pseudovirus) (HIV-1)
[26] = molecular target: HIV-1 MGRM-C-027 Env (pseudovirus, clade C) (HIV-1)
[27] = molecular target: HIV-1 Env of isolate MGRM-G-019 (HIV-1)
[28] = molecular target: HIV-1 Env of isolate 93IN905 (HIV-1)
[29] = molecular target: HIV-1 Env of isolate CAAN.A2 (Acute), clade B, on pseudovirus (HIV-1)
[30] = molecular target: HIV-1 Env of isolate MGRM-D-024 (clade D pseudovirus) (HIV-1)
[31] = molecular target: HIV-1 Env of pseudovirus MGRM-AE-005 (clade CRF01_AE) (HIV-1)
[32] = molecular target: HIV-1 Env of pseudovirus MGRM-AE-008 (clade CRF01_AE) (HIV-1)
[33] = molecular target: HIV-1 Env of pseudovirus MGRM-Chronic-B-017 (HIV-1)
[34] = molecular target: HIV-1 Env of pseudovirus MGRM-G-017 (HIV-1, clade G isolate MGRM-G-017)
[35] = molecular target: HIV-1 Env of pseudovirus MGRM-G-027 (HIV-1, clade G isolate MGRM-G-027)
[36] = molecular target: HIV-1 envelope glycoprotein (Env) of isolate 92RW026, clade A (HIV-1)
[37] = molecular target: HIV-1 envelope glycoprotein (Env) of isolate MGRM-A-014, clade A (HIV-1)

Sequence of 4995_E20 (PGT-142) (antibody) (VH): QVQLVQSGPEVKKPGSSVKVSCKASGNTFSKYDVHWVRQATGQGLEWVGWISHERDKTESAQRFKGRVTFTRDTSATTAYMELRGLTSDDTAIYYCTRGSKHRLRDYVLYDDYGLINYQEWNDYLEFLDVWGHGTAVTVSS
Sequence of 4995_E20 (PGT-142) (antibody) (VL): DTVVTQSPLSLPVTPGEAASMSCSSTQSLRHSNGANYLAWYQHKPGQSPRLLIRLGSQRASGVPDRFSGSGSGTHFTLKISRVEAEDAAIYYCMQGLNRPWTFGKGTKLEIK
Sequence of 4980_N08 (PGT-143) (antibody) (VH): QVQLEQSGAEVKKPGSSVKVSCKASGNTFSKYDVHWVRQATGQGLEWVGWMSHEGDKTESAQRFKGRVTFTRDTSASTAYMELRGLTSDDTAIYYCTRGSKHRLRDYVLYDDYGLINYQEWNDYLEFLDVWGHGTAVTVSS
Sequence of 4980_N08 (PGT-143) (antibody) (VL): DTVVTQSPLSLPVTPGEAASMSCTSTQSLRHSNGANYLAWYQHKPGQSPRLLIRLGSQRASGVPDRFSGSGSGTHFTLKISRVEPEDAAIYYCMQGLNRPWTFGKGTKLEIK
Sequence of 5345_I01 (PGT-137) (antibody) (VH): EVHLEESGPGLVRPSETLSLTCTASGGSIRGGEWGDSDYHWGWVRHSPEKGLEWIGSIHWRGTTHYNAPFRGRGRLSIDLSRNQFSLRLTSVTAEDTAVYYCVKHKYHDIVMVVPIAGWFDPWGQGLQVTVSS
Sequence of 5345_I01 (PGT-137) (antibody) (VL): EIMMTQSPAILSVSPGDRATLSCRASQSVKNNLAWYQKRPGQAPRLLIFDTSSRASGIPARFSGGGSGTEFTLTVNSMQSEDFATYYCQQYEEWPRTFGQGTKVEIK
Sequence of 4993_K13 (PGT-141) (antibody) (VH): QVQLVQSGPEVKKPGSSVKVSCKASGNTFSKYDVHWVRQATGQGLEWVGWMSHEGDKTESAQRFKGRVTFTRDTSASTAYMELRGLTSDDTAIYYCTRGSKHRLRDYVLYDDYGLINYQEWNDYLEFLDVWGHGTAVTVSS
Sequence of 4970_K22 (PGT-144) (antibody) (VH): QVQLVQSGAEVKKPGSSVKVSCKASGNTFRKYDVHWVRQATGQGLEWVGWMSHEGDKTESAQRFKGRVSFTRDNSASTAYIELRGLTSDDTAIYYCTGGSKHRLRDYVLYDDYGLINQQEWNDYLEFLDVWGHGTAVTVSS
Sequence of 4970_K22 (PGT-144) (antibody) (VL): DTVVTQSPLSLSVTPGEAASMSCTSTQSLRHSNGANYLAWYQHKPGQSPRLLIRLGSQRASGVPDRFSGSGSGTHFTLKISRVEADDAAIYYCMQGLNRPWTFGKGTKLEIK

Row | Substance | IC50 (µg/mL), pseudovirus neutralization [6] | IC50 (µg/mL), pseudovirus neutralization [10] | IC50 neutralization [15] | IC50 (µg/mL), pseudovirus neutralization [16] | IC50, pseudovirus neutralization [17] | IC50 (µg/mL), pseudovirus neutralization [18] | IC50 [19] | IC50 [20] | IC50 (µg/mL), pseudovirus neutralization [21] | IC50, pseudovirus neutralization [22] | IC50 (µg/mL), pseudovirus neutralization [23] | IC50 (µg/mL), pseudovirus neutralization [24] | IC50 (µg/mL), pseudovirus neutralization [25] | IC50 neutralization [26] | IC50 (µg/mL), pseudovirus neutralization [27] | also measured
1 | 5136_H01 (PGT-131) (antibody) | 1.41 µg/mL | 0.466 µg/mL | – | – | – | – | – | – | – | – | – | – | – | – | – | Primary Neutralization Index (B cell culture supernatant) [1]: 354; IC50 (µg/mL), pseudovirus neutralization [2]: > 50 µg/mL; IC50 neutralization [3]: > 50 µg/mL; IC50 (µg/mL), pseudovirus neutralization [4]: 11.2 µg/mL; IC50 [5]: > 50 µg/mL; IC50 (µg/mL), pseudovirus neutralization [7]: 1.04 µg/mL; IC50 neutralization [8]: > 50 µg/mL; IC50 neutralization [9]: > 50 µg/mL; IC50 (µg/mL), pseudovirus neutralization [11]: 0.143 µg/mL; IC50 (µg/mL), pseudovirus neutralization [12]: 1.67 µg/mL
2 | 4858_P08 (PGT-123) (antibody) | – | 0.008 µg/mL | 0.0328 µg/mL | 0.138 µg/mL | > 10 µg/mL | 0.046 µg/mL | > 50 µg/mL | > 50 µg/mL | 0.008 µg/mL | > 50 µg/mL | > 50 µg/mL | 0.075 µg/mL | 0.105 µg/mL | 0.0169 µg/mL | – | neutralization IC50 [13]: 0.0071 µg/mL; neutralization IC80 [13]: 0.0281 µg/mL; neutralization IC90 [13]: 0.0625 µg/mL; neutralization IC95 [13]: 0.131 µg/mL; neutralization IC50 (pseudovirus) [14]: 0.222 µg/mL
3 | 4980_N08 (PGT-143) (antibody) | > 50 µg/mL | – | – | – | – | – | – | – | – | – | – | – | – | – | 4.77 µg/mL | IC50 (neutralizing activity, pseudovirus) [14]: > 10 µg/mL
4 | 4993_K13 (PGT-141) (antibody) | > 50 µg/mL | – | – | – | – | – | – | – | – | – | – | – | – | – | 20.3 µg/mL | IC50 (neutralizing activity, pseudovirus) [14]: > 10 µg/mL
5 | 4877_D15 (PGT-122) (antibody) | – | 0.01 µg/mL | 0.0851 µg/mL | 0.778 µg/mL | > 10 µg/mL | 0.057 µg/mL | > 50 µg/mL | > 50 µg/mL | 0.008 µg/mL | > 50 µg/mL | > 50 µg/mL | 0.277 µg/mL | 0.689 µg/mL | 0.0388 µg/mL | – | neutralization IC50 (pseudovirus) [14]: 0.992 µg/mL
6 | 5145_B14 (PGT-127) (antibody) | – | 0.032 µg/mL | – | 0.026 µg/mL | – | 0.018 µg/mL | > 50 µg/mL | > 50 µg/mL | 0.12 µg/mL | > 50 µg/mL | > 50 µg/mL | > 50 µg/mL | 0.164 µg/mL | – | – | Polyclonal Transfectant Neutralization Index [1]: 0.94; Primary Neutralization Index (B cell culture supernatant) [1]: 1
7 | 4838_L06 (PGT-121) (antibody) | – | – | – | 0.251 µg/mL | > 10 µg/mL | 0.027 µg/mL | > 50 µg/mL | > 50 µg/mL | 0.011 µg/mL | > 50 µg/mL | 16.9 µg/mL | 0.104 µg/mL | 0.137 µg/mL | – | – | –
8 | 5123_A06 (PGT-125) (antibody) | – | 0.012 µg/mL | 0.0359 µg/mL | 0.007 µg/mL | > 10 µg/mL | 0.004 µg/mL | > 50 µg/mL | > 50 µg/mL | 0.157 µg/mL | 0.04 µg/mL | > 50 µg/mL | > 50 µg/mL | 0.042 µg/mL | > 10 µg/mL | – | neutralization IC50 (pseudovirus) [14]: 0.0128 µg/mL; Polyclonal Transfectant Neutralization Index [1]: 50.6; Primary Neutralization Index (B cell culture supernatant) [1]: 133
9 | 5343_B08 (PGT-135) (antibody) | > 50 µg/mL | > 50 µg/mL | > 10 µg/mL | – | > 10 µg/mL | – | – | – | – | – | – | – | – | > 10 µg/mL | – | IC50 (neutralizing activity, pseudovirus) [14]: 0.545 µg/mL; IC50 (µg/mL), pseudovirus neutralization [2]: > 50 µg/mL; IC50 neutralization [3]: > 50 µg/mL; IC50 (µg/mL), pseudovirus neutralization [4]: > 50 µg/mL; IC50 [5]: > 50 µg/mL; IC50 (µg/mL), pseudovirus neutralization [7]: > 50 µg/mL; IC50 neutralization [8]: > 50 µg/mL; IC50 neutralization [9]: > 50 µg/mL; IC50 (µg/mL), pseudovirus neutralization [11]: 0.061 µg/mL; IC50 (µg/mL), pseudovirus neutralization [12]: 0.004 µg/mL
10 | 1496_C09 (PG9) (TCN-109) (antibody) | – | – | 0.214 µg/mL | – | – | – | – | – | – | – | – | – | – | 2.45 µg/mL | 14.6 µg/mL | IC50 [28]: 0.03 µg/mL; IC50 (µg/ml), pseudovirus neutralization [29]: 5.67 µg/mL; IC50 (µg/ml), pseudovirus neutralization [30]: 0.03 µg/mL; IC50 [31]: 0.16 µg/mL; IC50 [32]: 10.6 µg/mL; IC50 (µg/ml), pseudovirus neutralization [33]: 0.32 µg/mL; IC50 (µg/ml), pseudovirus neutralization [34]: 0.03 µg/mL; IC50 (µg/ml), pseudovirus neutralization [35]: 0.01 µg/mL; IC50 (µg/ml), pseudovirus neutralization [36]: 0.27 µg/mL; IC50 (µg/ml), pseudovirus neutralization [37]: 0.62 µg/mL
11 | 4970_K22 (PGT-144) (antibody) | > 50 µg/mL | – | – | – | – | – | – | – | – | – | – | – | – | – | > 50 µg/mL | IC50 (neutralizing activity, pseudovirus) [14]: > 10 µg/mL
12 | 5345_I01 (PGT-137) (antibody) | > 50 µg/mL | > 50 µg/mL | – | – | – | – | – | – | – | – | – | – | – | – | – | IC50 (µg/mL), pseudovirus neutralization [2]: > 50 µg/mL; IC50 neutralization [3]: > 50 µg/mL; IC50 (µg/mL), pseudovirus neutralization [4]: > 50 µg/mL; IC50 [5]: > 50 µg/mL; IC50 (µg/mL), pseudovirus neutralization [7]: > 50 µg/mL; IC50 neutralization [8]: > 50 µg/mL; IC50 neutralization [9]: > 50 µg/mL; IC50 (µg/mL), pseudovirus neutralization [11]: 0.23 µg/mL; IC50 (µg/mL), pseudovirus neutralization [12]: 0.011 µg/mL
13 | VRC01 (antibody) | 0.685 µg/mL | – | – | – | – | – | – | – | – | – | – | – | – | – | 0.06 µg/mL | IC50 [23]: 1.08 µg/mL; IC50 [24]: 0.055 µg/mL
14 | 5114_A19 (PGT-128) (antibody) | 0.18 µg/mL | 0.008 µg/mL | – | – | – | – | – | – | – | – | – | – | – | – | – | Polyclonal Transfectant Neutralization Index [1]: 10; Primary Neutralization Index (B cell culture supernatant) [1]: 6.6; IC50 (µg/mL), pseudovirus neutralization [2]: > 50 µg/mL; IC50 neutralization [3]: 0.045 µg/mL; IC50 (µg/mL), pseudovirus neutralization [4]: 0.011 µg/mL; IC50 [5]: > 50 µg/mL; IC50 (µg/mL), pseudovirus neutralization [7]: 0.037 µg/mL; IC50 neutralization [8]: > 50 µg/mL; IC50 neutralization [9]: 0.02 µg/mL; IC50 (µg/mL), pseudovirus neutralization [11]: 0.026 µg/mL; IC50 (µg/mL), pseudovirus neutralization [12]: 0.007 µg/mL
15 | 5141_B17 (PGT-126) (antibody) | – | 0.012 µg/mL | 0.0249 µg/mL | 0.012 µg/mL | > 10 µg/mL | 0.008 µg/mL | 24.5 µg/mL | > 50 µg/mL | 0.041 µg/mL | > 50 µg/mL | > 50 µg/mL | > 50 µg/mL | 0.017 µg/mL | 1.14 µg/mL | – | IC50, pseudovirus neutralization [13]: 0.0194 µg/mL; IC80 (pseudovirus neutralization) [13]: 0.0676 µg/mL; IC90 (pseudovirus neutralization) [13]: 0.14 µg/mL; IC95 (pseudovirus neutralization) [13]: 0.275 µg/mL; neutralization IC50 (pseudovirus) [14]: 0.012 µg/mL; Polyclonal Transfectant Neutralization Index [1]: 2.74; Primary Neutralization Index (B cell culture supernatant) [1]: 2.3
16 | 4995_E20 (PGT-142) (antibody) | > 50 µg/mL | – | – | – | – | – | – | – | – | – | – | – | – | – | 5.95 µg/mL | IC50 (neutralizing activity, pseudovirus) [14]: > 10 µg/mL
17 | PGV04 (antibody) | – | – | – | – | – | – | – | – | – | – | – | – | – | – | 0.027 µg/mL | IC50 [2]: 0.553 µg/mL
